Assay results published in PMC9976917.

Key:
Assay in all cases: fluorescence polarization
[1] = molecular target: T1, ZNF410 FL seven S/T-to-D/E (Homo sapiens, UniProt Q86VK4 1-478, S148D;S154D;S155D;S157D;T158E;S160D;S161D)
T1 sequence: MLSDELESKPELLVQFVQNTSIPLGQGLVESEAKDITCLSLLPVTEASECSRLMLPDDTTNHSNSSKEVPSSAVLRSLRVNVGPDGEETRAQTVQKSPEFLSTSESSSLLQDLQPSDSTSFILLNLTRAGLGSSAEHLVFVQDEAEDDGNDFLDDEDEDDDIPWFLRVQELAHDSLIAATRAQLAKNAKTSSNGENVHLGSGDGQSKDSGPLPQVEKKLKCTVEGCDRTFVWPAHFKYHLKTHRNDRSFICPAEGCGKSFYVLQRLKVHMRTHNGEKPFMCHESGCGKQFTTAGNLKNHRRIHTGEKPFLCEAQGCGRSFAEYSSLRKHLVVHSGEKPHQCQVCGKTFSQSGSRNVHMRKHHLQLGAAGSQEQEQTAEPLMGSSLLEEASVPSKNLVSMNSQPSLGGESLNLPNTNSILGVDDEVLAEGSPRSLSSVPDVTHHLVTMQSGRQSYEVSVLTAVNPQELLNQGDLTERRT

ZNF410 FL DEAED-to-AAAAA = molecular target: T2, ZNF410 FL DEAED-to-AAAAA (Homo sapiens, UniProt Q86VK4 1-478, D143A;E144A;E146A;D147A)
T2 sequence: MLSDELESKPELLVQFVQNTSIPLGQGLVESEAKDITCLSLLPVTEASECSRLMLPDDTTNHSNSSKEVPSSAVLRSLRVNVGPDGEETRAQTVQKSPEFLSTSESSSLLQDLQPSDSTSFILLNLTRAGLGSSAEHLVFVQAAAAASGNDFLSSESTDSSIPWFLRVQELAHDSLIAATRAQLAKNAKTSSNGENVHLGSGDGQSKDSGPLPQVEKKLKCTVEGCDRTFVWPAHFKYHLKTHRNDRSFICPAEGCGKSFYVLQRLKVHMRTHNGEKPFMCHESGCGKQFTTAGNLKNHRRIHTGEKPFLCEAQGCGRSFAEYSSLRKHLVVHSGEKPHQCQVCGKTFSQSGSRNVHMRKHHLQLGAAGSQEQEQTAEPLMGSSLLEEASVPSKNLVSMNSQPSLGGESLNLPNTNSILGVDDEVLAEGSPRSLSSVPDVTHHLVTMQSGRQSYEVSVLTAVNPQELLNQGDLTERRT

ZNF410 NT = molecular target: T3, ZNF410 NT (Homo sapiens, UniProt Q86VK4 1-216)
T3 sequence: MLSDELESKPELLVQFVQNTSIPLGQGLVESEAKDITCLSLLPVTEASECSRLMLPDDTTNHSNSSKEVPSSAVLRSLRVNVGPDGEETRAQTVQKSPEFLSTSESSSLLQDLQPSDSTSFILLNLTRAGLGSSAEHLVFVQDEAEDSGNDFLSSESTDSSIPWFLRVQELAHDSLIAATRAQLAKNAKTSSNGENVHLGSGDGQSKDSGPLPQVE

B1: FAM 17-bp ZNF410 motif duplex (dsDNA)
DNA 1: CACATCCCATAATAATG
DNA 2: CATTATTATGGGATGTG
binding signal [1]: > 6 fold lower affinity than wild-type FL | binding signal (ZNF410 FL DEAED-to-AAAAA): > 4 fold higher affinity than wild-type FL | binding result (ZNF410 NT): no binding
